Laboratory results: article PMC3059534

Key:
[1] = molecular target: Mre11-Rad50-Xrs2 (MRX);Sae2 (Saccharomyces cerevisiae (budding …, UniProt P32829;P12753;P33301;P46946 1-692;1-1312;1-854;1-345, |)); experiment: EMSA
Sae2 [2] = molecular target: T1, Sae2 (Saccharomyces cerevisiae (budding yeast), UniProt P46946 1-345); experiment: EMSA
T1 sequence: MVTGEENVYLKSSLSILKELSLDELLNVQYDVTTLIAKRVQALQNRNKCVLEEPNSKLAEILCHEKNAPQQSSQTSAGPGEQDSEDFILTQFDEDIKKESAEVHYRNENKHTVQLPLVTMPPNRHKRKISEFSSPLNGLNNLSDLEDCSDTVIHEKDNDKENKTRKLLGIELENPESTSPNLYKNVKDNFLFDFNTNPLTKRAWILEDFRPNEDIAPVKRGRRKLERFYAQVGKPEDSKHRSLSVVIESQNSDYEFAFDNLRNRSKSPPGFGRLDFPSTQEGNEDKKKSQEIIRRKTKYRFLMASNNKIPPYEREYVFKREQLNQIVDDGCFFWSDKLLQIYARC

M(H125N)RX = M(H125N)RX (Saccharomyces cerevisiae (budding yeast), UniProt P32829;P12753;P33301 1-692;1-1312;1-854, H125N;Mre11); experiment: EMSA
Sequence of M(H125N)RX (P32829 whole entry H125N, chain 1 of 3): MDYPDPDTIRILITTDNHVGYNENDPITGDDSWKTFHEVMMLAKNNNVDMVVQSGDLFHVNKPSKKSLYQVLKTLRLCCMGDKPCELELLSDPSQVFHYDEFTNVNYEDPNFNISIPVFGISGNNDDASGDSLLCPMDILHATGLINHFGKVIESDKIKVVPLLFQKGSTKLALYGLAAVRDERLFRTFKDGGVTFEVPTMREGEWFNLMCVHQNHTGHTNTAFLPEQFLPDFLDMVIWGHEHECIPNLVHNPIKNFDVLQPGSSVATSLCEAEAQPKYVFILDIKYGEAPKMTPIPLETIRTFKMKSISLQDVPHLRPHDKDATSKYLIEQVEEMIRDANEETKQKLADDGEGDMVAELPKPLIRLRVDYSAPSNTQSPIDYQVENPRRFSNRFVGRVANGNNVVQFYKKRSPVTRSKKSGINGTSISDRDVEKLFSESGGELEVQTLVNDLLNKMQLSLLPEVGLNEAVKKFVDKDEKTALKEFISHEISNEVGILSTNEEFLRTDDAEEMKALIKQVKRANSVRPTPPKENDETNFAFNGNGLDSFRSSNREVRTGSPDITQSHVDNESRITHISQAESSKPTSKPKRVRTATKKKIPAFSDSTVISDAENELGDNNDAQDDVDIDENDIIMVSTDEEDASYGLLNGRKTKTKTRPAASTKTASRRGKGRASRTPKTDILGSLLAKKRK
Sequence of M(H125N)RX (P12753 whole entry, stated change not applied, chain 2 of 3): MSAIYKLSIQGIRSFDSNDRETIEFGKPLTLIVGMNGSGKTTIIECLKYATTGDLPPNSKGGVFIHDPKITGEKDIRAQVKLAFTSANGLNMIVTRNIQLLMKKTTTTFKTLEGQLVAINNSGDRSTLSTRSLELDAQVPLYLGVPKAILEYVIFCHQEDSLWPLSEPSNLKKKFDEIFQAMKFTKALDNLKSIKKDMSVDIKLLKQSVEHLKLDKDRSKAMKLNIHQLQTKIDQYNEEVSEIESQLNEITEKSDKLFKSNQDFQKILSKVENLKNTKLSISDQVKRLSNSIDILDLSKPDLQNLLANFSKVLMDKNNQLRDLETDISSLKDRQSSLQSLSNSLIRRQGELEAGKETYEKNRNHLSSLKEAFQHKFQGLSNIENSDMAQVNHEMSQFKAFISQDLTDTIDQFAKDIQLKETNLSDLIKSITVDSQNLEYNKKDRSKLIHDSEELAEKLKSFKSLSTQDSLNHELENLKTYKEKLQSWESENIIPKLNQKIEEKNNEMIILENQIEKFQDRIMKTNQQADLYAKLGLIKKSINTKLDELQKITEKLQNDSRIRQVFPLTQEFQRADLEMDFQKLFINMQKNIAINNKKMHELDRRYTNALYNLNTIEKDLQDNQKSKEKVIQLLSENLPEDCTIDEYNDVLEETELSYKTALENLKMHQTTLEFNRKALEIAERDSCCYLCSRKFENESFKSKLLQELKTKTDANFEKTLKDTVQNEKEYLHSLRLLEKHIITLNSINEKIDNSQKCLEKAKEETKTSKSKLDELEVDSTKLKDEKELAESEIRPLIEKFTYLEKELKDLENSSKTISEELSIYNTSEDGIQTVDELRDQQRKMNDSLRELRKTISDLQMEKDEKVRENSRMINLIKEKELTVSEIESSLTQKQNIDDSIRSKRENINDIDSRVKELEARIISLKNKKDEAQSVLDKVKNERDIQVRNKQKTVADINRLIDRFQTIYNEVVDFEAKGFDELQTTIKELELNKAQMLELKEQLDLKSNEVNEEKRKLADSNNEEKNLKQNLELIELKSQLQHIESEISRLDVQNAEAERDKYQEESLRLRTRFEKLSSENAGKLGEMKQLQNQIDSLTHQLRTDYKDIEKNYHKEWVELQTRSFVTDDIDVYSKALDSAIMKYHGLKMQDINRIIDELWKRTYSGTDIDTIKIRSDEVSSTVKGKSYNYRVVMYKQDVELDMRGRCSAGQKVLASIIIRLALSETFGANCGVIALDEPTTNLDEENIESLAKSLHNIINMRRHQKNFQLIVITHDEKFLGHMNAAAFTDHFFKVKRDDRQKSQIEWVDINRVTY
Sequence of M(H125N)RX (P33301 whole entry, stated change not applied, chain 3 of 3): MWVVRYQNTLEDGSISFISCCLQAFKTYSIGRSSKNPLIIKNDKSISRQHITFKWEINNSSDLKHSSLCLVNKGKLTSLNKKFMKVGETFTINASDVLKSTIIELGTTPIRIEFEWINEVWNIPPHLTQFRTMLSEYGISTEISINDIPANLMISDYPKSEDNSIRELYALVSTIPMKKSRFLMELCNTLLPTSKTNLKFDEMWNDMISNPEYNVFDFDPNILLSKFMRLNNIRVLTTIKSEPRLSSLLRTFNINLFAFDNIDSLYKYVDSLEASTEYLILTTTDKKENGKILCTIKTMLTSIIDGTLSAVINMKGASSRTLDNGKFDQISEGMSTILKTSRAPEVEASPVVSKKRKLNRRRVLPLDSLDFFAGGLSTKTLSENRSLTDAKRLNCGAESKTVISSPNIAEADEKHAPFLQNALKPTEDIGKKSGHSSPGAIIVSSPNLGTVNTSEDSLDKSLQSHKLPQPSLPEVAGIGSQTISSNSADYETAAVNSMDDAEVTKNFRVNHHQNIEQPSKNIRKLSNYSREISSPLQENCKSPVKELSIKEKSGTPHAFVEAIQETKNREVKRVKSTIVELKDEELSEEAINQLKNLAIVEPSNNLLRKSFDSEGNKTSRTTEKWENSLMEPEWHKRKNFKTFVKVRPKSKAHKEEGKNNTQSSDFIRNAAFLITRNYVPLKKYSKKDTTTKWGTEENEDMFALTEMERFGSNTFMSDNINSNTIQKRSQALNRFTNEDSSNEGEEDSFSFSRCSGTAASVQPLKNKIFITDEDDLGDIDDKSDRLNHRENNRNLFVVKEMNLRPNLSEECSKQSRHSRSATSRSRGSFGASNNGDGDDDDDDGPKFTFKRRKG

[3] = molecular target: Exo1 D173A;Mre11-Rad50-Xrs2 (MRX) (Saccharomyces cerevisiae (budding …, UniProt P39875;P32829;P12753;P33301 1-702;1-692;1-1312;1-854, D173A|)); experiment: pull-down
Sequence of Exo1 D173A;Mre11-Rad50-Xrs2 (MRX) (Saccharomyces cerevisiae (P32829 whole entry, chain 2 of 3): as the sequence (P32829 whole entry H125N, chain 1 of 3) above, with N125H counted along it
Sequence of Exo1 D173A;Mre11-Rad50-Xrs2 (MRX) (Saccharomyces cerevisiae (P12753 whole entry, chain 3 of 3): as the sequence (P12753 whole entry, stated change not applied, chain 2 of 3) above
Sequence of Exo1 D173A;Mre11-Rad50-Xrs2 (MRX) (Saccharomyces cerevisiae (P33301 whole entry, chain 4 of 3): as the sequence (P33301 whole entry, stated change not applied, chain 3 of 3) above

[4] = molecular target: T2, Exo1 (form in crosslinking assay not stated) (Saccharomyces cerevisiae (budding yeast), UniProt P39875 1-702); experiment: UV photo-crosslinking
T2 sequence: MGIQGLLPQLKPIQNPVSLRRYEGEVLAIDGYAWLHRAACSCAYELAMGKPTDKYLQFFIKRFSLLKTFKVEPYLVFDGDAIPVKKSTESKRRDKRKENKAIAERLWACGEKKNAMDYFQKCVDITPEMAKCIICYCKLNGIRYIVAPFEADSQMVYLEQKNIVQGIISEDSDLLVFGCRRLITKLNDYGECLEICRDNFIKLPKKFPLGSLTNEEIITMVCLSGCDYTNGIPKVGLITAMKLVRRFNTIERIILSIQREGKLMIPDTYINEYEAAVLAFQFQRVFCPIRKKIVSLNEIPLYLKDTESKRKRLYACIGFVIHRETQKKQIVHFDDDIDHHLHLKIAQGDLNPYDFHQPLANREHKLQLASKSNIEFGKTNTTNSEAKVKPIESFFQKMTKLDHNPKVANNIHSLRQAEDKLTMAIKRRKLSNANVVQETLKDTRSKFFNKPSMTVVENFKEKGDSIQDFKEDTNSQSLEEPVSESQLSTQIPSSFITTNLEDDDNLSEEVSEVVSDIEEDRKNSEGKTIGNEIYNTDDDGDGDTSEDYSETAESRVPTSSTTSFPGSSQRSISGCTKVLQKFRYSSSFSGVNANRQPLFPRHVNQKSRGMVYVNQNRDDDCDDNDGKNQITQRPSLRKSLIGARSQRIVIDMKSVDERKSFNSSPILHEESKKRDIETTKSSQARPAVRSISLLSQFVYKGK

[5] = molecular target: Exo1 (form in crosslinking assay not stated);Mre11-Rad50-Xrs2 (MRX);Sae2 (Saccharomyces cerevisiae (budding …, UniProt P39875;P32829;P12753;P33301;P46946 1-702;1-692;1-1312;1-854;1-345, ||)); experiment: UV photo-crosslinking
Sequence of Exo1 (form in crosslinking assay not stated);Mre11-Rad50-Xrs2 (MRX);Sae2 (Saccharomyces cerevisiae (P32829 whole entry, chain 2 of 3): as the sequence (P32829 whole entry H125N, chain 1 of 3) above, with N125H counted along it
Sequence of Exo1 (form in crosslinking assay not stated);Mre11-Rad50-Xrs2 (MRX);Sae2 (Saccharomyces cerevisiae (P12753 whole entry, chain 3 of 3): as the sequence (P12753 whole entry, stated change not applied, chain 2 of 3) above
Sequence of Exo1 (form in crosslinking assay not stated);Mre11-Rad50-Xrs2 (MRX);Sae2 (Saccharomyces cerevisiae (P33301 whole entry, chain 4 of 3): as the sequence (P33301 whole entry, stated change not applied, chain 3 of 3) above

Sae2 [6] = molecular target: T1, Sae2; experiment: UV photo-crosslinking
Exo1 D173A = molecular target: T3, Exo1 D173A (Saccharomyces cerevisiae (budding yeast), UniProt P39875 1-702, D173A); experiment: EMSA
T3 sequence: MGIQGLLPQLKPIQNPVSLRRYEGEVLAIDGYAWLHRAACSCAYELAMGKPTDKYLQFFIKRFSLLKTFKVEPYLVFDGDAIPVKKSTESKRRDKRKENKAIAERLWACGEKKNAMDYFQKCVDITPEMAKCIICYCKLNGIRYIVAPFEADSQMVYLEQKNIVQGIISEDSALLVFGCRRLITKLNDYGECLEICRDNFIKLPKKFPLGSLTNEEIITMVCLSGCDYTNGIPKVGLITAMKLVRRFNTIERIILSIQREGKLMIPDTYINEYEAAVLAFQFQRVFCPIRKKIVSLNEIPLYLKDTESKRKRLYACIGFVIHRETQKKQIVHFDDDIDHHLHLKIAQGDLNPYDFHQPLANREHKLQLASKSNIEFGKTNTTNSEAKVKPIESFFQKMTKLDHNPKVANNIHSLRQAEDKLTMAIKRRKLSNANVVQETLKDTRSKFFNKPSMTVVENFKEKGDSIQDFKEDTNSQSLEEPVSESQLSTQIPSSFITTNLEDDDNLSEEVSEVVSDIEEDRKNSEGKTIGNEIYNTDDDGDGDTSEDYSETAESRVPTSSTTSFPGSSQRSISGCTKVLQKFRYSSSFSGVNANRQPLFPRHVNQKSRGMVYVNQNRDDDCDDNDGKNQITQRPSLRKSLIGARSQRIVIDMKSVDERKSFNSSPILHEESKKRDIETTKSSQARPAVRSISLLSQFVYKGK

Sequence of Mre11-Rad50-Xrs2 (MRX);Sae2 (Saccharomyces cerevisiae (P32829 whole entry, chain 1 of 3): as the sequence (P32829 whole entry H125N, chain 1 of 3) above, with N125H counted along it
Sequence of Mre11-Rad50-Xrs2 (MRX);Sae2 (Saccharomyces cerevisiae (P12753 whole entry, chain 2 of 3): as the sequence (P12753 whole entry, stated change not applied, chain 2 of 3) above
Sequence of Mre11-Rad50-Xrs2 (MRX);Sae2 (Saccharomyces cerevisiae (P33301 whole entry, chain 3 of 3): as the sequence (P33301 whole entry, stated change not applied, chain 3 of 3) above

B1: TP74/TP2680 42 bp duplex with 4 nt 3' overhangs (dsDNA)
DNA 1: CTGCAGGGTTTTTGTTCCAGTCTGTAGCACTGTGTAAGACAGGCCA
DNA 2: CTGTCTTACACAGTGCTACAGACTGGAACAAAAACCCTGCAGTACA
B1: binds [1]; binds (Sae2 [2]); binds (M(H125N)RX).

B2: TP2399/TP2400 blunt 100 bp duplex, pull-down (dsDNA)
DNA 1: GCTAAAGCGAAGAACACTGAAAGGTTCAAAACCTCCACTATAGTCCACTCGCAGTCGTACAAGAGGCTTCTCTGGCTGGTGAGAATTACCCAGACGTTCC
DNA 2: GGAACGTCTGGGTAATTCTCACCAGCCAGAGAAGCCTCTTGTACGACTGCGAGTGGACTATAGTGGAGGTTTTGAACCTTTCAGTGTTCTTCGCTTTAGC
B2: binds [3].

B3: TP2722/TP2723 90 bp, 5' azide (dsDNA)
DNA 1: AAGTAAATCATTAATCTAACAATGCGCTCATCGTCATCCTCACATCGGCCTGTCTTACACAGTGCTAAGCTCGGAACAAAAACCCTGCAG
DNA 2: CTGCAGGGTTTTTGTTCCGAGCTTAGCACTGTGTAAGACAGGCCGATGTGAGGATGACGATGAGCGCATTGTTAGATTAATGATTTACTT
modifications: 5 phosphorothioates at 5' end of each strand, azidophenacyl (APB) modified
B3: binds [4]; binds [5].

B4: TP771/TP828 90 bp, 3' azide (dsDNA)
DNA 1: AAGTAAATCATTAATCTAACAATGCGCTCATCGTCATCCTCACATCGGCCTGTCTTACACAGTGCTAAGCTCGGAACAAAAACCCTGCAG
DNA 2: CTGCAGGGTTTTTGTTCCGAGCTTAGCACTGTGTAAGACAGGCCGATGTGAGGATGACGATGAGCGCATTGTTAGATTAATGATTTACTT
modifications: 5 phosphorothioates at 3' end of each strand, azidophenacyl (APB) modified
B4: binds (Sae2 [6]).

B5: TP74/TP2681 branched substrate (dsDNA)
DNA 1: CTGCAGGGTTTTTGTTCCAGTCTGTAGCACTGTGTAAGACAGGCCA
DNA 2: CTAGCTACTTGACACAGTGCTACAGACTGGAACTGACTTCATGCTA
B5: binds (Exo1 D173A).
